According to US20130330362A1 (HEFEI TAIRUI BIOTECHNOLOGY, published 2013):

Target: T1, Epidermal Growth Factor Receptor (EGFR) protein (UniProt P00533 25-1210, limits assumed)
T1 construct: Bought protein; also called EGFR proteins; antigen EGFR
Assay: SPR, Biacore3000, CM5 chip, HBS-EP pH 7.4, mean of three runs
Procedure: The binding affinity between antibody and EGFR was assayed with Biacore3000 equipment. The EGFR proteins diluted with 10 mmol/L NaAc and having different pH (4.0, 4.5, 5.0 and 5.5) were formulated, and were pre-concentrated on CM5 chip to select the NaAc diluted protein with optimum pH. […] The binding affinities were computed with the software attached by Biacore3000.

B1: anti-EGFR humanized antibody L4-H3 (antibody, human IgG1, kappa, V domains shown)
VH: VKLLEQSGAEVKKPGASVKVSCKASGFSLTNYGVHWVRQAPGQRLEWMGVIWSGGNTDYNTPFTSRVTITRDTSATTAYMGLSSLRPEDTAVYYCARALTYYDYEFAYWGQGTLVTVSS
VL: ELVMTQSPSSLSASVGDRVNIACRASQSIGTNIHWYQQKPGKAPRLLIKYASESISGVPSRFSGSGSGTDFTLTISSLQPEDFAIYYCQQNNNWPTTFGGGTKVEIKR
notes: also called antibody of the present invention; the antibody
  Kd: 2.75 nM
